Experimental data reported in paper PMC3510444 (Molecular Cell, 2012).
Where no end group is shown, it is not given here.

Target: T1, LC3A, purified, for fluorescence anisotropy (human, UniProt Q9H492 1-121)
T1 construct: LC3A, human ATG8 ortholog; Construct limits and whether the tag was removed may stand in the Supplemental Experimental Procedures; source: E. coli (pETM30 vectors for biochemical experiments), purified
Experiment: fluorescence polarisation; fluorescence anisotropy, equilibrium; purified ATG8 orthologs serially diluted and mixed with equal volumes of 100 nM FITC-labeled NDP52 peptides; PheraStar plate reader
Details: both partners purified

B1: FITC-labeled NDP52 CLIR peptide (aa 128-141), wild type (peptide)
peptide: ENEEDILVVTTQGE
modifications: also: FITC label (end not given here)
notes: NDP52, human, CLIR region, 14-mer; also called CLIR^WT
  Kd: 15.1 µM

B2: FITC-labeled NDP52 CLIR peptide (aa 128-141), I133W (peptide)
peptide: ENEEDWLVVTTQGE
modifications: also: FITC label (end not given here)
notes: NDP52, human, CLIR region, 14-mer, Ile133 replaced with Trp; also called CLIR^I133W
  Kd: 0.29 µM
